Data on four molecules can be found in article PMC3199381 (The EMBO Journal, 2011).

Like-named read-outs stand apart in the source and are kept apart here.

One assay has as its target T1, T.t.MglA (Thermus thermophilus, UniProt Q5SJ82).
T1 sequence (Q5SJ82 1-196): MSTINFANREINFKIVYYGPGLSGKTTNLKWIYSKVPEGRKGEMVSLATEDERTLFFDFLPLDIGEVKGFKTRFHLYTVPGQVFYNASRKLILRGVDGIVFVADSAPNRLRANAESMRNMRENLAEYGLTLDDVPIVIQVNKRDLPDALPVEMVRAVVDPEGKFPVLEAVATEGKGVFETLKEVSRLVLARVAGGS
Briefly: X-ray crystal structure, […] Å. Type of assay: binding. The settings on record: no Mg2+ detected at the nucleotide.

The target of another assay is T2, MglA·MglB^A5 complex (Thermus thermophilus, UniProt Q5SJ82).
T2 sequence (Q5SJ82 1-196): T1 sequence (Q5SJ82 1-196)
T2 sequence (Q5SJ83 6-139 E14A/R15A/G65S/R124A/E127A/R131A partner): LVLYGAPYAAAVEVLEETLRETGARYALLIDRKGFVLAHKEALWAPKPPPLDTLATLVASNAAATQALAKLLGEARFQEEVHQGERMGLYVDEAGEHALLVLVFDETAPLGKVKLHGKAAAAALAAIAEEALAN
Briefly: X-ray crystal structure, […] Å. Type of assay: binding. Conditions: with AlF4- as transition state mimic.

Assay [1] concerns the target MglB from Thermus thermophilus HB8, residues 6-139 (Thermus thermophilus HB8). Briefly: crystal structure.
Assay [2] deals with MglA from Thermus thermophilus HB8, wild type (Thermus thermophilus HB8). Briefly: fluorescence polarisation.
Assay [3] shares this target. Briefly: SEC.
The target of assay [4] is MglB from Thermus thermophilus HB8, residues 6-139 (Thermus thermophilus HB8). Briefly: SEC.
The target of assay [5] is MglA from Thermus thermophilus HB8, wild type (Thermus thermophilus HB8). Briefly: fluorescence polarisation. This is another data set of the same source. (In general: Polarisation of emitted light reports the rotation of a fluorescent probe.)
The target in assay [6] is MglB from Thermus thermophilus HB8, residues 6-139 (Thermus thermophilus HB8). Briefly: crystal structure. The source holds these as a separate data set.
The target in assay [7] is MglA from Thermus thermophilus HB8, wild type (Thermus thermophilus HB8). Briefly: crystal structure.

For orientation: stoichiometry N means the number of molecules, sites or subunits per partner or assembly. One may read the Kd as the constant that tells how readily two partners part at equilibrium. Read a high Kd as a looser complex.

With `Nc1nc2c(ncn2[C@@H]2O[C@H](COP(=O)(O)OP(=O)(O)O)[C@@H](O)[C@H]2O)c(=O)[nH]1` [GDP], the “X-ray crystal structure, 1.9 Å” value at T.t.MglA is given as 3T1O (MglA·GDP). Further, the “X-ray crystal structure, 2.2 Å” value on MglA·MglB^A5 complex is 3T12 (MglA·GDP·AlF4-·MglB^A5).

Regarding “MglB from Thermus thermophilus HB8, residues 6-139 (domain or fragment)”, the stoichiometry N in [1] turned out to be 4; in [4] it was 2; in assay [6] it was 2. Besides, the Kd in assay [2] stood at 3.2 µM; in assay [5], 2 µM. In addition, the stoichiometry N (MglB monomers per MglA) in [2] came out at 2. In addition, the stoichiometry N (MglB per MglA) in assay [3] turned out to be 2.

The molecule “MglB^A5 (E14/R15/R124/E127/R131A), residues 6-139 (domain or fragment)” returned a stoichiometry N (MglB per MglA) in [7] of 2.

“MglB^A68/72R, residues 6-139 (domain or fragment)” registered a Kd in assay [2] of 34.6 µM.
